Results as given in patent US20140072563A1 (Regeneron, published 2014).

T1: ErbB3-mFc (human)
T1 construct: Dimeric soluble ErbB3; also called hErbB3.mFc
T1 chain: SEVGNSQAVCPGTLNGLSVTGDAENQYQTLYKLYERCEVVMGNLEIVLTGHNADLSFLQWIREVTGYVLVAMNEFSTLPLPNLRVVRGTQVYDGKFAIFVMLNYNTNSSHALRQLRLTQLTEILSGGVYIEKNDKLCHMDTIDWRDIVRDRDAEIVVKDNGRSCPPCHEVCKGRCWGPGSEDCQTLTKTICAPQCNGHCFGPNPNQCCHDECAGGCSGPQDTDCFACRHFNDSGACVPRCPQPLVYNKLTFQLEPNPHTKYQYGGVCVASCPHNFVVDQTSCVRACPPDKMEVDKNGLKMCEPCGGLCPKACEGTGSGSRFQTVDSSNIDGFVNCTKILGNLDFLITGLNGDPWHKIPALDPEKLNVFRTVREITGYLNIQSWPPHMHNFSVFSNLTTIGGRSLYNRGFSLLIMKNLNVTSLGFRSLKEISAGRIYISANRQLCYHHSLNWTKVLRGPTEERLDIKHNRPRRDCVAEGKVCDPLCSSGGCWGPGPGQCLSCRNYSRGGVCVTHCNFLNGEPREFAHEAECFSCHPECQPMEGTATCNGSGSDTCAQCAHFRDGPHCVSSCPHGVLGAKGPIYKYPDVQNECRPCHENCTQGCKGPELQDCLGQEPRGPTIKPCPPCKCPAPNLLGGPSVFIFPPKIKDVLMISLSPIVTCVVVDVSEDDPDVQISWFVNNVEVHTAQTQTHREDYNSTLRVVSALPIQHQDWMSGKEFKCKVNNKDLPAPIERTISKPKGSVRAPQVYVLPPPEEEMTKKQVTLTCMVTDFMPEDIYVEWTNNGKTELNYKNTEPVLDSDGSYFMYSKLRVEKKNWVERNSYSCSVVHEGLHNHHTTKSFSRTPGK

T2: hErbB3.mFc (soluble dimeric human ErbB3 extracellular domain fused to mouse Fc) (human)
T2 construct: called dimeric
T2 chain: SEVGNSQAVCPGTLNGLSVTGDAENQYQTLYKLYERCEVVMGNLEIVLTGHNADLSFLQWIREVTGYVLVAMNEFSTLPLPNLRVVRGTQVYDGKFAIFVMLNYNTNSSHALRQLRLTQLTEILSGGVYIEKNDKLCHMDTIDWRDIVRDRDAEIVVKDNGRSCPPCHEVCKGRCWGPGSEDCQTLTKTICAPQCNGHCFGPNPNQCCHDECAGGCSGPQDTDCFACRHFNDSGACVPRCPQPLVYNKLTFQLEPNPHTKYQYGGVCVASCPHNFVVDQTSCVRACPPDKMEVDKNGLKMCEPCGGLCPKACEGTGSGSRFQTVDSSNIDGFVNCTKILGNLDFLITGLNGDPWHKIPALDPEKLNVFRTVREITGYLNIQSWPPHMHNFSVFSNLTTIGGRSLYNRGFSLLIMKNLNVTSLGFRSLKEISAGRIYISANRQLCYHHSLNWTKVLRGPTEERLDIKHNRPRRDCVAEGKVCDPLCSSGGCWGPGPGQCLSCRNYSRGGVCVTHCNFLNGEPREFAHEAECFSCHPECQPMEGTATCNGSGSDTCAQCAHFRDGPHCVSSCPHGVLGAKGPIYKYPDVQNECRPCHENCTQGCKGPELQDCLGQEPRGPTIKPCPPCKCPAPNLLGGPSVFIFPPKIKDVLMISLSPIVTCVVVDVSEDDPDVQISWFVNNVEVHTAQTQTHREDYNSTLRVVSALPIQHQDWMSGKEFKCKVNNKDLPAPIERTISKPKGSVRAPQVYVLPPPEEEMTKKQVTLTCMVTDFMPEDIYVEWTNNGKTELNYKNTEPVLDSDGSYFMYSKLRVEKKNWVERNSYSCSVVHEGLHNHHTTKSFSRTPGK


Experiments:
ErbB3-mFc = target: T1, ErbB3-mFc; experiment: blocking ELISA: antibody (0-50 nM) + 50 pM ErbB3-mFc, binding to coated neuregulin1b
Text: To further characterize anti-hErbB3 mAbs of the present invention, their ability to block ligand binding was examined via ELISA. […] Plates were washed and non-sequestered (plate bound) ErbB3 was detected with an anti-Fc poly conjugated with horseradish peroxidase (HRP). Plates were developed with TMB (3,3′,5,5′-tetramethylbenzidine) and neutralized with sulfuric acid before reading absorbance at 450 nm on a Victor X5 plate reader. Data analysis used a sigmoidal dose-response model within Prism™ software. […] Maximal blocking for each antibody was calculated by taking the difference in absorbance from zero to 50 nM antibody on the inhibition curve, divided by the difference in absorbance from 50 pM to zero ErbB3 on the dose curve.

[1] = target: hErbB3.mmh (soluble monomeric human ErbB3 extracellular domain with C-terminal myc-myc-hexahistidine tag) (human, UniProt P21860 20-642); experiment: SPR (Biacore), 25 C, mAb capture format
Procedure: (§1) (Tables 2-4). Measurements were conducted on a Biacore 2000 or T100 instrument. […] Kinetic association (kₐ) and dissociation (kd) rate constants were determined by processing and fitting the data to a 1:1 binding model using Scrubber 2.0 curve fitting software.

[2] = target: T2, hErbB3.mFc (soluble dimeric human ErbB3 …); experiment: SPR (Biacore), 25 C, mAb capture format
Procedure: as §1

Row | IC50 (ErbB3-mFc) [nM] | Maximal Blocking (%) (ErbB3-mFc) | Kd [1] [nM] | T½ [1] [h] | koff [1] [s⁻¹] | kon [1] [M⁻¹ s⁻¹] | Kd [2] [nM] | T½ [2] [h] | koff [2] [s⁻¹] | kon [2] [M⁻¹ s⁻¹] | Binder
1 | 0.02 | 99 | – | – | – | – | – | – | – | – | H4H1819N (antibody, human IgG4, V domains shown, Human IgG4 Fc (prefix H4H)) VH: EVQLVESGGGVVRPGGSLRLSCAASGFTFDDYAMHWVRQAPGKGLEWVAGISWNSGSIDYADSVKGRFTISRDNAKNSLYLQMNSLRAGDTALYYCAKDILDLDYYGLDVWGQGTTVTVSS VL: DIQMTQSPSSLSASVGDRVTITCRASQDISSYLAWYQQKPGKVPNLLIYDASSLQSGVPSRFSGSGSGTDFTLTLSSLQPEDFASYYCQNYNSAPYTFGQGTKLEIK
2 | 0.0873 | 95 | – | – | – | – | – | – | – | – | H4H2084P (antibody, human IgG4, V domains shown, Human IgG4 Fc (prefix H4H)) VH: QVQLVESGGGVVQSGKSLRLSCVASGFTFSNYGMHWVRQTPGKGLEWVARIWFDGTNKYYTDSVKGRFTLSRDSSKNTLYLQMNSLRAEDTAVYFCAREESLELDHYVMDVWGQGTTVTVSS VL: AIQMTQSPSSLSASVGDRVTITCRASQDIRDDLGWFQQKPGKAPNLLIYAASSLQSGVPSRFSGSGSGTDFTLTISSLQPEDFATYYCLQDYNYPLTFGGGTKVEIKR
3 | 0.163 | 91 | – | – | – | – | – | – | – | – | H4H2114P (antibody, human IgG4, V domains shown, Human IgG4 Fc (prefix H4H)) VH: QVQLVESGGGVVQPGRSLRLSCAASGFTFSSYGMHWVRQAPGKGLEWVAGMSYDGSSKYYEDSVKGRFTISRDNSKNTLNLQMNSLRVEDTAVYYCAKERDYVEYVDSYYGMDVWGQGTTVTVSA VL: AIQMTQSPSSLSASVGDRVTITCRASQGIRNDLGWYQQKPGKAPKVLIYAASSLQSGVPSRFSGSGSGTVFTLTISSLQPEDFATYYCLQDYNYPLTFGGGTKVEIKR
4 | – | – | 0.115 | 2.65 | 6.72e-05 | 582000 | 0.014 | 15.8 | 1.13e-05 | 800000 | H4H2290P (antibody, V domains shown, Fully human, human IgG4 Fc (H4H prefix)) VH: EVQLLESGGGLVQPGGSLRLSCVASGFTFSSFAMSWVRQAPGKGLEWVSVISGSGGSTNHADSVRGRFTISRDNSLNTVYLQMHSLRAEDTALYYCVKAETSSSYFYYGMDVWGQGTTVTVSS VL: DIQLTQSPSFLSASVGDRVTITCWASQDISSYLAWYQQKPGKVPNLLIYGASSLQPGVPSRFSGSGSGTEFTLTISSLQPEDFATYYCQQLNNYPTFGGGTKLEIKR
5 | – | – | 0.00942 | 6.2 | 2.86e-05 | 3.04e+06 | 0.000213 | 186 | 9.52e-07 | 4.48e+06 | H4H2151P (antibody, V domains shown, Fully human, human IgG4 Fc (H4H prefix)) VH: QVQLVESGGGVVQPGRSLRLSCAASGFTFSNYGMHWVRQAPGKGLEWVARIWYDGSNKYYADSVKGRFTISRDSSKNTLYLQMNSLRAEDTAVYYCAREGEQNLDYYPLDVWGQGTTVTVSS VL: DIVMTQSPSSLSASVGDRVTITCRASQDIRNDLGWYQQKPGKAPKLLIYAASSLQTGVPSRFSGSVSGTDFTLTISSLQPEDFATYYCLQDYTYPLTFGGGTKVEIK
6 | 0.018 | 99 | – | – | – | – | – | – | – | – | H4H1821N (antibody, human IgG4, V domains shown, Human IgG4 Fc (prefix H4H); In the H/D exchange experiment it was covalently attached to NHS agarose beads) VH: EVQLVESGGGLVQPGRSLRLSCAASGFTFDDYAMHWVRQAPGKGLEWVSSISWNSGSIGYADSVKGRFTISRDNAKNSLYLQMNSLKPEDTALYYCTKDTDYGDYLDAFDIWGQGTMVAVAS VL: not shown
7 | 0.135 | 95 | – | – | – | – | – | – | – | – | H4H2098P (antibody, human IgG4, V domains shown, Human IgG4 Fc (prefix H4H)) VH: QVQLVESGGGVVQPGRSLRLSCAASGFTFSSFGMHWVRQAPGKGLEWVAVIWYVEINKYHADSVKGRFTISRDDSKNTVYLQMNSLRAEDTAVYYCARDWNDGDYGMDVWGQGTTVTVSS VL: DIQLTQSPSFLSASVGDRVTITCWASQGISSFLAWYQQKAGKAPRLLIYAASTLQTGVPSRFSGSGSGTEFTLTISSLQPGDFATYHCQQLNSYPYTFGQGTKLEIKR
8 | – | – | 0.0117 | 5.18 | 3.43e-05 | 2.94e+06 | 0.000337 | 143 | 1.24e-06 | 3.67e+06 | H4H2153P (antibody, V domains shown, Fully human, human IgG4 Fc (H4H prefix)) VH: QVQLVQSGAEVKKPGASVKVSCKASGYTFTRYGISWVRQAPGLGLEWMGWISAYDGYTNFAQKFQGRFTMTTDTSTNTAYMELRGLRSDDTAVYYCAREEEDAAFDIWGQGTMVTVSS VL: not shown
